Measured values taken from patent US20230348852A1, “METHODS AND COMPOSITIONS FOR OCULAR CELL THERAPY” (NOVARTIS AG, priority 2020, published 2023).

What was measured:
[1] = tested on: genomic DNA purified from male human peripheral blood mononuclear cells; test: Biochemical assay for potential off-target genomic sites cleaved by Cas9 and B2M guides; settings: number of potential off-target sites, guide concentration 64 nM
Method: A biochemical method (See, e.g., Cameron et al., Nature Methods. 6, 600-606; 2017) was used to determine potential off-target genomic sites cleaved by Cas9 and selected B2M guides. Guides showing B2M indel activity were tested for potential off-target genomic cleavage sites with this assay. […] The number of potential off-target sites detected using a guide concentration of 64 nM in the biochemical assay are shown in Table 10. As a result of this analysis, several gRNAs were selected for analysis of potential off-target activity in limbal stem cells.

B2M [2] = test: sgRNA screening for B2M knockout in LSCs (nucleofection, FACS); assay type: cell-based, human; settings: Cas9 protein SEQ ID NO: 106, LSCs at passage 3, FACS after around 3 days
Method: Cells were cultured under these conditions for 24-48 hours at 37° C. in 5% CO2.
LSCs were nuclofected with selected gRNAs (Table 6) followed by FACS analysis / MACS separation.
After scraping the cells, the reaction was stopped by using cell culture medium containing 10% Serum and transferred to a falcon tube. After counting cells using Vi-cell 300′000 cells were prepared per reaction by transferring 300′000 cells in single tubes and centrifuged at 1000 rpm for 5 min. The supernatant was aspirated using manually pipetting to avoid cell loss and the cells were resuspended in the Stem cell nucleofector solution II (Lonza, Cat #VPH-5022). Resuspend cells in nucleofector solution immediately before adding the Cas9 RNP:sgRNA mixture. To obtain the nucleofection mixture, 5 µg high concentrated (≥5 µg/µl) Cas9 protein of SEQ ID NO: 106 (volume = 0.78 µl) was mixed with 19.5 µg sgRNA of Table 6 (volume = 12.2 µl) and incubated for 20 min at room temperature. […] The Cas9 protein-guideRNA complex was added to the cell suspension and transferred to the electroporation cuvette immediately. Cells were transfected using the nucelofector device (Lonza, Amaxa Nucleofector II) and program A023. After nucleofection cells were transferred from cuvette to one well of a 24 well synthemax coated plate containing pre-warmed LSC medium including 3 µM LATS compound and 10 µM Rock inhibitor Y-27632 (Nature 1997, vol. 389, pp. 990-994). Incubate LSCs in a 5% CO2 incubator for around 3 days until cells are 90% confluent.
LSCs were treated with TryLE®Express Enzym (ThermoFisher, Cat #12605010) for 15 minutes in 5% CO2 at 37° C. After scraping the cells, the reaction was stopped by using cell culture medium containing 10% Serum and transferred to a falcon tube for a centrifugation step (1000 rpm, 5 minutes). After aspirating the medium cells were resuspended in 200 µl FACS buffer (PBS/10%FBS).
(§1) To analyze the expression of B2M and HLA-ABC, 5 µl APC mouse anti-human β2-microglobulin antibody (Biolegend, Cat#316312) and 20 µl PE mouse anti-human HLA-ABC antibody (BD Bioscience, Cat # 560168) were added to the cell suspension and incubated for 30 minutes on ice.
Cells were washed 3 times after antibody labelling with FACS buffer and resuspended in 200 µl in FACS buffer (depending on the cell number).
FACS data were analyzed using BD FACSDiva software and FlowJo software.

B2M [3] = test: Targeted PCR and NGS (amplicon sequencing) of on-target and off-target sites in genome-edited LSCs; assay type: cell-based, human; settings: for validated indels for off-target activity in LSCs: amplicon sequencing of potential off-target loci; for Number of sites positive for off-target activity in LSCs: of the potential off-target loci sequenced; for B2M purified rhAmpSeq indel: purified (B2M negative) LSC populations
Method: Potential CRISPR/Cas9-mediated cutting sites identified above were evaluated using targeted PCR and NGS in genome-edited expanded LSCs.
Selected sgRNAs (SEQ ID NO: 120, 162, 166, 167, 171, and 175) were further analyzed by amplicon sequencing in edited and non-edited cells. Primers flanking the potential off-target sites for each guide were used to detect indels by NGS analysis in edited LSCs and non-edited peripheral blood mononuclear cells. Sites that had either (1) a difference in mean indel percentage between edited and unedited cells greater than 0.5%; or (2) a p value less than 0.05 between edited and unedited indel were further analyzed. NGS sequence reads for such sites were assessed for characteristic indel patterns near the putative Cas9 cut site. Based on the results, we could assess the specificity of gRNAs and their suitability for therapeutic applications.

human B2M = test: CRISPR/Cas9-mediated deletion of B2M in HEK293 (lipofection, FACS); assay type: cell-based; settings: lipofection of tracrRNA, gRNA and Cas9 mRNA; FACS after 72 h
Method: One day before transfection, 500′000 HEK293cells (ATCC, Manassas, VA) were plated in a 35 mm dish and grown in DMEM/10%FBS. The following day, cells were transfected with a mixture of tracrRNA-gRNA-Cas9 mRNA. A stock of 10 micromolar was prepared resuspending 20 nanomoles of gRNA and 20 nanomoles tracrRNA in 2000 microlitre 10 millimolar Tris buffer pH7.4 each.
The mixture was added drop wise to the culture dish in 2.5 ml DMEM/10%FBS medium. The transfection reagent alone represented the transfection negative control.
After 6 h incubation in 5% CO2 at 37° C. medium was replaced with fresh DMEM/10%FBS medium. After 72 h in a 5% CO2 incubator cells were prepared for FACS analysis. FACS analysis: HEK293 cells were treated with Accutase (ThermoFisher, Cat # A1110501) for 20 minutes in 5% CO2 at 37° C. The reaction was stopped by using cell culture medium containing 10% Serum and transferred to a falcon tube for a centrifugation step (1000 rpm, 5 minutes). After aspirating the medium cells were resuspended in 200 microlitre FACS buffer (PBS/10%FBS).
as §1, with “microlitre” for “µl”, “Cat #316312)” for “Cat#316312)”, “ice. Cells were washed 3 times after antibody labelling with FACS buffer and resuspended in 500 microlitre in FACS buffer.” for “ice.”
Each sample was transferred to one well of a round bottom 96 well plate and analyzed on a BD LSRFortessa X-20 device. FACS data were analyzed using BD FACSDiva software.

B1: 9-HEYJA000005: gRNA targeting human B2M; targeting domain SEQ ID NO: 116; sgRNA SEQ ID NO: 167 (nucleic acid)
guide: UCACGUCAUCCAGCAGAGAAGUUUUAGAGCUAGAAAUAGCAAGUUAAAAUAAGGCUAGUCCGUUAUCAACUUGAAAAAGUGGCACCGAGUCGGUGCUUUU
modifications: listed as RNA, chemistry not given here
With B1 the “off-target Site_ Count” value [1] was 35, the “B2M knockout efficiency in LSCs after nucleofection” value (“B2M knockout efficiency in LSCs” for short) (B2M [2]) was 12% and the “validated indels for off-target activity in LSCs” value (“validated indels” for short) (B2M [3]) was “zero”. The “Number of sites positive for off-target activity in LSCs” value (shortened to “Number of sites positive”) (B2M [3]) was 0 of 35, the “Number of sites positive” value (B2M [3]; listed as SEQ ID NO: 167) was “no predicted sites tested positive for off-target activity” and the “B2M purified rhAmpSeq indel” value (B2M [3]) was 99.80±0.26%. For the same molecule, the “B2M purified rhAmpSeq indel” value (B2M [3]; listed as SEQ ID NO: 167) was ~ 99% and the “B2M knockout efficiency in HEK293” value (human B2M) was 39%.

B2: CR000455: gRNA targeting human B2M; targeting domain SEQ ID NO: 138; sgRNA SEQ ID NO: 175 (nucleic acid)
guide: UUACCCCACUUAACUAUCUUGUUUUAGAGCUAGAAAUAGCAAGUUAAAAUAAGGCUAGUCCGUUAUCAACUUGAAAAAGUGGCACCGAGUCGGUGCUUUU
modifications: listed as RNA, chemistry not given here
With B2 the “off-target Site_ Count” value [1] was 48, the “B2M knockout efficiency in LSCs” value (B2M [2]) was 24% and the “validated indels” value (B2M [3]) was “zero”. For the same molecule, the “Number of sites positive” value (B2M [3]) was 0 of 46, the “Number of sites positive” value (B2M [3]; listed as SEQ ID NO: 175) was “no predicted sites tested positive for off-target activity” and the “B2M purified rhAmpSeq indel” value (B2M [3]) was 99.33±0.32%. For the same molecule, the “B2M purified rhAmpSeq indel” value (B2M [3]; listed as SEQ ID NO: 175) was ~ 99%.

B3: CR000456: gRNA targeting human B2M; targeting domain SEQ ID NO: 139; sgRNA SEQ ID NO: 176 (nucleic acid)
guide: CUUACCCCACUUAACUAUCUGUUUUAGAGCUAGAAAUAGCAAGUUAAAAUAAGGCUAGUCCGUUAUCAACUUGAAAAAGUGGCACCGAGUCGGUGCUUUU
modifications: listed as RNA, chemistry not given here
B3 was tested, and the “off-target Site_ Count” value [1] was 66 and the “B2M knockout efficiency in LSCs” value (B2M [2]) was 3%.

B4: CR000442: gRNA targeting human B2M; targeting domain SEQ ID NO: 134; sgRNA SEQ ID NO: 171 (nucleic acid)
guide: GGCCACGGAGCGAGACAUCUGUUUUAGAGCUAGAAAUAGCAAGUUAAAAUAAGGCUAGUCCGUUAUCAACUUGAAAAAGUGGCACCGAGUCGGUGCUUUU
modifications: listed as RNA, chemistry not given here
With B4 the “off-target Site_ Count” value [1] was 29, the “B2M knockout efficiency in LSCs” value (B2M [2]) was 62% and the “validated indels” value (B2M [3]) was “zero”. For the same molecule, the “Number of sites positive” value (B2M [3]) was 0 of 28, the “Number of sites positive” value (B2M [3]; listed as SEQ ID NO: 171) was “no predicted sites tested positive for off-target activity” and the “B2M purified rhAmpSeq indel” value (B2M [3]) was 99.10±0.26%. For the same molecule, the “B2M purified rhAmpSeq indel” value (B2M [3]; listed as SEQ ID NO: 171) was ~ 99%.

B5: CR000453: gRNA targeting human B2M; targeting domain SEQ ID NO: 137; sgRNA SEQ ID NO: 174 (nucleic acid)
guide: CACAGCCCAAGAUAGUUAAGGUUUUAGAGCUAGAAAUAGCAAGUUAAAAUAAGGCUAGUCCGUUAUCAACUUGAAAAAGUGGCACCGAGUCGGUGCUUUU
modifications: listed as RNA, chemistry not given here
In the case of B5, the “off-target Site_ Count” value [1] is reported as 82 and the “B2M knockout efficiency in LSCs” value (B2M [2]) is reported as 5%.

B6: 6-HEYJA000001: gRNA targeting human B2M; targeting domain SEQ ID NO: 113; sgRNA SEQ ID NO: 164 (nucleic acid)
guide: GGCCGAGAUGUCUCGCUCCGGUUUUAGAGCUAGAAAUAGCAAGUUAAAAUAAGGCUAGUCCGUUAUCAACUUGAAAAAGUGGCACCGAGUCGGUGCUUUU
modifications: listed as RNA, chemistry not given here
B6 was tested, and the “off-target Site_ Count” value [1] was 8, the “B2M knockout efficiency in LSCs” value (B2M [2]) was 33% and the “B2M knockout efficiency in HEK293” value (human B2M) was 47%.

B7: CR000446: gRNA targeting human B2M; targeting domain SEQ ID NO: 136; sgRNA SEQ ID NO: 173 (nucleic acid)
guide: AGGGUAGGAGAGACUCACGCGUUUUAGAGCUAGAAAUAGCAAGUUAAAAUAAGGCUAGUCCGUUAUCAACUUGAAAAAGUGGCACCGAGUCGGUGCUUUU
modifications: listed as RNA, chemistry not given here
With B7 the “off-target Site_ Count” value [1] was 98 and the “B2M knockout efficiency in LSCs” value (B2M [2]) was 27%.

B8: 8-HEYJA000004: gRNA targeting human B2M; targeting domain SEQ ID NO: 115; sgRNA SEQ ID NO: 166 (nucleic acid)
guide: ACUCACGCUGGAUAGCCUCCGUUUUAGAGCUAGAAAUAGCAAGUUAAAAUAAGGCUAGUCCGUUAUCAACUUGAAAAAGUGGCACCGAGUCGGUGCUUUU
modifications: listed as RNA, chemistry not given here
With B8 the “off-target Site_ Count” value [1] was 62, the “B2M knockout efficiency in LSCs” value (B2M [2]) was 22% and the “validated indels” value (B2M [3]) was “zero”. The “Number of sites positive” value (B2M [3]) was 0 of 60, the “Number of sites positive” value (B2M [3]; listed as SEQ ID NO: 166) was “no predicted sites tested positive for off-target activity” and the “B2M purified rhAmpSeq indel” value (B2M [3]) was 99.95±0.07%. The “B2M purified rhAmpSeq indel” value (B2M [3]; listed as SEQ ID NO: 166) was ~ 99% and the “B2M knockout efficiency in HEK293” value (human B2M) was 65%.

B9: 4-CR004366: gRNA targeting human B2M; targeting domain SEQ ID NO: 111; sgRNA SEQ ID NO: 162; from Dharmacon (nucleic acid)
guide: CAGUAAGUCAACUUCAAUGUGUUUUAGAGCUAGAAAUAGCAAGUUAAAAUAAGGCUAGUCCGUUAUCAACUUGAAAAAGUGGCACCGAGUCGGUGCUUUU
modifications: listed as RNA, chemistry not given here
notes: gRNA targeting human B2M; from Dharmacon
B9 was tested, and the “off-target Site_ Count” value [1] was 92, the “B2M knockout efficiency in LSCs” value (B2M [2]) was 22% and the “validated indels” value (B2M [3]) was “zero”. The “Number of sites positive” value (B2M [3]) was 0 of 88, the “Number of sites positive” value (B2M [3]; listed as SEQ ID NO: 162) was “no predicted sites tested positive for off-target activity” and the “B2M purified rhAmpSeq indel” value (B2M [3]) was 99.85±0.21%. For the same molecule, the “B2M purified rhAmpSeq indel” value (B2M [3]; listed as SEQ ID NO: 162) was ~ 99% and the “B2M knockout efficiency in HEK293” value (human B2M) was 48%.

B10: CR000443: gRNA targeting human B2M; targeting domain SEQ ID NO: 135; sgRNA SEQ ID NO: 172 (nucleic acid)
guide: CGCGAGCACAGCUAAGGCCAGUUUUAGAGCUAGAAAUAGCAAGUUAAAAUAAGGCUAGUCCGUUAUCAACUUGAAAAAGUGGCACCGAGUCGGUGCUUUU
modifications: listed as RNA, chemistry not given here
For B10, the “off-target Site_ Count” value [1] was 117 and the “B2M knockout efficiency in LSCs” value (B2M [2]) was 25%.
